Legend:
[1] = test system: QAg, hexahistidine fusion protein of the carboxy-terminal 62 amino acids of Rak
[2] = test system: QAg mutant with tyrosine 450 changed to phenylalanine
[3] = test system: QAg mutant with tyrosine 497 changed to phenylalanine
[4] = test system: QAg mutant with tyrosine 463 changed to phenylalanine
[5] = test system: QAg mutant with tyrosine 490 changed to phenylalanine

Sequence of p50^csk, cytoplasmic tyrosine kinase CSK purified from baculovirus-infected insect cells (P41240 whole entry): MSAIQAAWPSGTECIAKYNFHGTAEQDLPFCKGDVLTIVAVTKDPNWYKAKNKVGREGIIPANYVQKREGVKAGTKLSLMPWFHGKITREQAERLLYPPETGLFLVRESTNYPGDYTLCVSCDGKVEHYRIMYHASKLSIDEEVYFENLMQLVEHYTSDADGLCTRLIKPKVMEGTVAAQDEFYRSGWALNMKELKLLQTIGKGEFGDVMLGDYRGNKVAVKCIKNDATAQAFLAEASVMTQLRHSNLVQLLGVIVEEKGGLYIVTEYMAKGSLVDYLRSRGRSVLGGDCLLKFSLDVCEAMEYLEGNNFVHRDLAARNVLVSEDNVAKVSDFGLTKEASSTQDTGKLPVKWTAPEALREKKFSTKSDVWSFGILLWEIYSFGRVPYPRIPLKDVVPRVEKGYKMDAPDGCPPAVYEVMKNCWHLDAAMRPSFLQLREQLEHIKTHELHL

For “p50^csk, cytoplasmic tyrosine kinase CSK purified from baculovirus-infected insect cells”, the “phosphorylation by CSK (in vitro kinase assay)” value [1] was “This peptide was readily phosphorylated by CSK”, the phosphorylation by CSK (in vitro kinase assay) (fraction of wild-type peptide) [2] was 0.5 and the “phosphorylation by CSK (in vitro kinase assay)” value [3] was “Phosphorylation of the 497 mutant, however, was barely detectable”. For the same substance, the “phosphorylation by CSK (in vitro kinase assay)” value [4] was “The mutant at position 463 was phosphorylated at levels equivalent to the wild-type peptide” and the phosphorylation by CSK (in vitro kinase assay) (fraction of wild-type peptide) [5] was 0.5.

From patent US6531296
